Experimental data published in the supplement of paper PMC10065799, “High-throughput profiling of sequence recognition by tyrosine kinases and SH2 domains using bacterial peptide display” (eLife, 2023).

Columns and labels:
c-Src SH2 = experiment: SH2 binding enrichment of the phosphorylated peptide, bacterial display (enrichment ratio); higher = better substrate or ligand; peptides without Tyr show the background
Grb2 SH2 = Grb2 SH2 (UniProt P62993); experiment: as above
SHP2-C SH2 = experiment: as above
MERTK = MERTK (UniProt Q12866); experiment: phosphorylation enrichment, bacterial display (enrichment ratio); higher = better substrate or ligand; peptides without Tyr show the background
Sequence of MERTK (Q12866 whole entry, looked up): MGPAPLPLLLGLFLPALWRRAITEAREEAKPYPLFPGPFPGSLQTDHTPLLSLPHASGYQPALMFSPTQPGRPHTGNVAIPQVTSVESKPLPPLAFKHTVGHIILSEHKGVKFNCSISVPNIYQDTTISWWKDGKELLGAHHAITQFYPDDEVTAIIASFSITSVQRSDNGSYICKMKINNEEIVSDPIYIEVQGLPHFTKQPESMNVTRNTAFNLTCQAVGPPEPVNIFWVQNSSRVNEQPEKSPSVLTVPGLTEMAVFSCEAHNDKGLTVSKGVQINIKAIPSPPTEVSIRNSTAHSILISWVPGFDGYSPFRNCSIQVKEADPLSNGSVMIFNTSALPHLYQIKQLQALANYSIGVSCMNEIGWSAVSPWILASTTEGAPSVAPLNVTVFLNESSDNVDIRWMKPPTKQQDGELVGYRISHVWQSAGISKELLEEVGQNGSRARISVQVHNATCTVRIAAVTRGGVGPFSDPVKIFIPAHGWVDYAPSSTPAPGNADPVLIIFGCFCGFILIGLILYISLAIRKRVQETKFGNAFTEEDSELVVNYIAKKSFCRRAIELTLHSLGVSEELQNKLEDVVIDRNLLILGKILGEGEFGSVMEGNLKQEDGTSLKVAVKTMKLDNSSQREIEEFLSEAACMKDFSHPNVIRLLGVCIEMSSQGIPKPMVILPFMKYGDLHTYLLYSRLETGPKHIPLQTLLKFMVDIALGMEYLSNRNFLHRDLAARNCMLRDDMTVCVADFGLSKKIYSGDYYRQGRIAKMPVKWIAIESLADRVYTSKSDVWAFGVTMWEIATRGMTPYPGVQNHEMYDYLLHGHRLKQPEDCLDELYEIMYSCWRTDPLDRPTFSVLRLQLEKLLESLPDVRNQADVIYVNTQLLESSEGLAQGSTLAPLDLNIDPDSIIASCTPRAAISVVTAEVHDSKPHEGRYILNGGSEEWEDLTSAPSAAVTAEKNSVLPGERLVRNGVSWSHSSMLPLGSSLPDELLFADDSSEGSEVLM

EPHB2 = EPHB2 (UniProt P29323); experiment: as above
FGFR3 = FGFR3 (UniProt P22607); experiment: as above
Sequence of FGFR3 (P22607 whole entry, looked up): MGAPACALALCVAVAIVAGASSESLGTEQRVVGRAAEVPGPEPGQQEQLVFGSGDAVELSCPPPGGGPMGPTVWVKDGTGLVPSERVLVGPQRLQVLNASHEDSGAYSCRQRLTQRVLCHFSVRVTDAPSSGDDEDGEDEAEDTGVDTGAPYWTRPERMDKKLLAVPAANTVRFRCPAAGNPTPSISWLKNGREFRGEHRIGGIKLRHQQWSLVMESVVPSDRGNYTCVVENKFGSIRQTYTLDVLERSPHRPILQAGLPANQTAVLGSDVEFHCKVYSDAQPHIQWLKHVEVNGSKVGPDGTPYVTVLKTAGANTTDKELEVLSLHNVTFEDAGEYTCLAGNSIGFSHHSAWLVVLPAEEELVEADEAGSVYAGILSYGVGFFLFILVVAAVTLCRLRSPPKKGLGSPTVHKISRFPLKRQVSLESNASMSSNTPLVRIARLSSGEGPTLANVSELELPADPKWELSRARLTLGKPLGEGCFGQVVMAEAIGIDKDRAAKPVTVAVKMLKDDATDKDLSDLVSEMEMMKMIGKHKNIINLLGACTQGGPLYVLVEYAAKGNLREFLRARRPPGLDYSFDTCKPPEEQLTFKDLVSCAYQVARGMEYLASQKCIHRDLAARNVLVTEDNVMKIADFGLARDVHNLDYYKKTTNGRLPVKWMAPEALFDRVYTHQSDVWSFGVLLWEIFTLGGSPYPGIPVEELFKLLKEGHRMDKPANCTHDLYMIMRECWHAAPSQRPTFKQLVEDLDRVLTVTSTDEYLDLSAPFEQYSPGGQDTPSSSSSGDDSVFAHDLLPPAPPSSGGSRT

AncSZ = experiment: as above
Fyn = Fyn (UniProt P06241); experiment: as above
Sequence of Fyn (P06241 whole entry, looked up): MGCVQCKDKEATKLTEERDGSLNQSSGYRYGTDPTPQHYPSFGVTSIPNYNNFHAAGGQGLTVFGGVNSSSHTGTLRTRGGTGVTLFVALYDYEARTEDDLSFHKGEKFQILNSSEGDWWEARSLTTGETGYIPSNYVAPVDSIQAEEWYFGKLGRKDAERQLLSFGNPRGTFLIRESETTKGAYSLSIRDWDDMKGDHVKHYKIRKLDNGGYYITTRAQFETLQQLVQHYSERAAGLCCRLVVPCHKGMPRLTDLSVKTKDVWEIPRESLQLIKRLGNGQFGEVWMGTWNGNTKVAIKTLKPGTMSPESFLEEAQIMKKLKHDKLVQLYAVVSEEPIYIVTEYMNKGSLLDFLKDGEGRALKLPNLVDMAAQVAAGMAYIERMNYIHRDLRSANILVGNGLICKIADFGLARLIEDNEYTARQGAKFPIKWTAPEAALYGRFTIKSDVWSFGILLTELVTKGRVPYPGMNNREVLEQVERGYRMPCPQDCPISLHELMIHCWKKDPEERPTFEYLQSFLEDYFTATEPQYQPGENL

Hck = Hck (UniProt P08631); experiment: as above
Sequence of Hck (P08631 whole entry, looked up): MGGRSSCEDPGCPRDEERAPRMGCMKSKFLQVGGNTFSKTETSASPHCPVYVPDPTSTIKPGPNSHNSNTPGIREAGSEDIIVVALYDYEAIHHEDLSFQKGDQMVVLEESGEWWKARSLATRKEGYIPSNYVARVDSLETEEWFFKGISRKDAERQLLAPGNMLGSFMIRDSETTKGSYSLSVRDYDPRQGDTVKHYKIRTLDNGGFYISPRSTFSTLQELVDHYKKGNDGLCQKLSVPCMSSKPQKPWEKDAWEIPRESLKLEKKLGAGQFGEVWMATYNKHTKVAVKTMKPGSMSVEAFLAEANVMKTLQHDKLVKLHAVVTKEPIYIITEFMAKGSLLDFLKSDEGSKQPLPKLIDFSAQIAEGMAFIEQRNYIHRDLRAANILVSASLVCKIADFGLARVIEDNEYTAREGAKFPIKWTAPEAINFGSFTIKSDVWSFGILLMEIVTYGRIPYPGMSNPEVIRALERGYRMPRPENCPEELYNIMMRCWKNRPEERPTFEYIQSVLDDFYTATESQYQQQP

Fes = Fes (UniProt P07332); experiment: as above
Sequence of Fes (P07332 whole entry, looked up): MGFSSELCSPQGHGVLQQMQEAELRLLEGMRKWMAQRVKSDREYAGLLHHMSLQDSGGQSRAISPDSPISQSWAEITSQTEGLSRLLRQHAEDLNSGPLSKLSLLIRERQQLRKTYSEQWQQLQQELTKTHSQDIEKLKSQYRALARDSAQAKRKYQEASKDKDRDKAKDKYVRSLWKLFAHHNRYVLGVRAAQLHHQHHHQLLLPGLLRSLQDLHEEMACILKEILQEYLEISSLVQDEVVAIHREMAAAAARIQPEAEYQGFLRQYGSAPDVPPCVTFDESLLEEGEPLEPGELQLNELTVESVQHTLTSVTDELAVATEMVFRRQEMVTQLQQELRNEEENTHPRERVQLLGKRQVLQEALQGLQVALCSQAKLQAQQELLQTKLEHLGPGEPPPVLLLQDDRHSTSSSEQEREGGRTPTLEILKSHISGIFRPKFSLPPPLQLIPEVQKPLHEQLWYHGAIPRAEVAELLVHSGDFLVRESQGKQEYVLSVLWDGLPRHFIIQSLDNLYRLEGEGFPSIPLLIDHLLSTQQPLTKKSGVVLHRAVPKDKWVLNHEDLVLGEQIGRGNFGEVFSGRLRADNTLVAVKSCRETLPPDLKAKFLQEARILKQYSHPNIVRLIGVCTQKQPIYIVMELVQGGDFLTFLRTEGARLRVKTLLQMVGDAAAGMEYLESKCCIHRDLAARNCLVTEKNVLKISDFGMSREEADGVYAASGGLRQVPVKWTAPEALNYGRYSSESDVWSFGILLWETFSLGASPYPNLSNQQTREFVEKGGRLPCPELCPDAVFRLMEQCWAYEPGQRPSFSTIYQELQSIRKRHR

EPHB1 = EPHB1 (UniProt P54762); experiment: as above
Sequence of EPHB1 (P54762 whole entry, looked up): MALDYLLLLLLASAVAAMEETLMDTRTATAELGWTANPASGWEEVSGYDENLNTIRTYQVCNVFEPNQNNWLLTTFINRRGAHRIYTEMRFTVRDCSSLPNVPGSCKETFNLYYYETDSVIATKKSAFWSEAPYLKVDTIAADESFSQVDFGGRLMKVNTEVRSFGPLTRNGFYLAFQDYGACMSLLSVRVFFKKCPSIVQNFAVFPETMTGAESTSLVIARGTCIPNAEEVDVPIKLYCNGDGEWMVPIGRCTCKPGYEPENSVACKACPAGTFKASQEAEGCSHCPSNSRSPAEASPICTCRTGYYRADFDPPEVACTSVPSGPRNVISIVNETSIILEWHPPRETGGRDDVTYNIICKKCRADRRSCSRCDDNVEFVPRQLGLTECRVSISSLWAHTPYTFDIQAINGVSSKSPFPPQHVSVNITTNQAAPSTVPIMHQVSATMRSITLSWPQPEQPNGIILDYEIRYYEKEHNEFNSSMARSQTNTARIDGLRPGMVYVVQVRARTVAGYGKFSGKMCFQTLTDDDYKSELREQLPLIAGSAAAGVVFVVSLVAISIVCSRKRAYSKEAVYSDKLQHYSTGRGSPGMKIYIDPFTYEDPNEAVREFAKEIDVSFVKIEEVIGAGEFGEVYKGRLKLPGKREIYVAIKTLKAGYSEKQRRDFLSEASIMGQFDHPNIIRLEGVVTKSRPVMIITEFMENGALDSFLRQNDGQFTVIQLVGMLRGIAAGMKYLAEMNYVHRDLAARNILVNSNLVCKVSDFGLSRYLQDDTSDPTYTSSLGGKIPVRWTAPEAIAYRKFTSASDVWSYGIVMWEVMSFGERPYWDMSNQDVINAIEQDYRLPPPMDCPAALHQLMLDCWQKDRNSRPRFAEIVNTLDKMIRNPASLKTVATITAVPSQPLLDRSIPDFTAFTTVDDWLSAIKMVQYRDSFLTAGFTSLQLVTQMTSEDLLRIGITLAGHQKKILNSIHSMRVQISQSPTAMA

c-Src = experiment: as above
c-Abl (mouse) = experiment: as above
Jak2 = Jak2 (UniProt O60674); experiment: as above
Fer (mouse) = experiment: as above
FGFR1 = FGFR1 (UniProt P11362); experiment: as above
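Throughout, for SH2 binding enrichment of the phosphorylated peptide, bacterial display: peptide library displayed on the E. coli surface as eCPX fusions, selected cells deep-sequenced, score is each peptide's frequency after selection divided by its frequency in the input.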
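Throughout, for phosphorylation enrichment, bacterial display: 11-residue human phosphosite peptides and single-mutation variants displayed on the E. coli surface, counted by deep sequencing, each peptide's frequency after selection divided by its frequency in the unselected input library; frequency after pTyr selection over input frequency; kinase dosed for 20-30% of maximal phosphorylation in three min.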

Sequence of Grb2 SH2 (P62993 whole entry, looked up): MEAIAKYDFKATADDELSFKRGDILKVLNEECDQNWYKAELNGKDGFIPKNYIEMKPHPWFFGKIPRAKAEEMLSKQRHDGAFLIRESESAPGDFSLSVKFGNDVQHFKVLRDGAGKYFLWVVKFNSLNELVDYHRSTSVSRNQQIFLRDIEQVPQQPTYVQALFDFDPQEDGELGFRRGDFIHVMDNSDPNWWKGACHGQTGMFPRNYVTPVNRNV

| Sequence | SH2 binding enrichment (c-Src SH2) | SH2 binding enrichment (Grb2 SH2) | SH2 binding enrichment (SHP2-C SH2) | phosphorylation enrichment (MERTK) | phosphorylation enrichment (EPHB2) | phosphorylation enrichment (FGFR3) | phosphorylation enrichment (AncSZ) | phosphorylation enrichment (Fyn) | phosphorylation enrichment (Hck) | phosphorylation enrichment (Fes) | phosphorylation enrichment (EPHB1) | phosphorylation enrichment (c-Src) | phosphorylation enrichment (c-Abl (mouse)) | phosphorylation enrichment (Jak2) | phosphorylation enrichment (Fer (mouse)) | phosphorylation enrichment (FGFR1) |
| --- | --- | --- | --- | --- | --- | --- | --- | --- | --- | --- | --- | --- | --- | --- | --- | --- |
| PRNLIYFGEHP [TRPV6_Y201_C197R] | 0.401 | 0.531 | 0.598 | 0.448 | 0.925 | 0.912 | 1.23 | 0.738 | 0.932 | 1.51 | 0.631 | 1.08 | 0.92 | 1.57 | 0.619 | 0.423 |
| KAIMTYVPSFF [ACTN4_Y260_S262P_YF] | 0.97 | 0.97 | 0.836 | 0.487 | 0.531 | 0.542 | 0.72 | 0.499 | 0.497 | 0.838 | 0.61 | 0.46 | 0.647 | 0.678 | 0.438 | 0.445 |
| ASKEPYYVRCI [MYO1D_Y585] | 0.481 | 0.702 | 0.391 | 0.618 | 0.802 | 0.813 | 1.35 | 0.521 | 0.464 | 1.17 | 0.877 | 0.595 | 1.19 | 1.21 | 0.557 | 0.686 |
| EYGSGYPNDPK [RNASEH2A_Y210_D205E] | 0.352 | 0.8 | 0.626 | 0.425 | 0.458 | 0.474 | 0.697 | 0.446 | 0.593 | 0.794 | 0.369 | 0.386 | 0.574 | 0.672 | 0.505 | 0.433 |
| MGSFNYLGFAR [SPTLC2_Y178_YF] | 0.59 | 1.05 | 1.58 | 0.443 | 0.493 | 0.603 | 0.63 | 0.439 | 0.485 | 0.661 | 0.942 | 0.535 | 0.521 | 1.15 | 0.431 | 0.504 |
| GIVKAYFVRAR [AIPL1_Y267_YF] | 0.506 | 0.826 | 0.756 | 0.512 | 0.434 | 0.558 | 1.11 | 0.488 | 0.503 | 0.991 | 0.445 | 0.467 | 0.669 | 1.13 | 0.463 | 0.487 |
| RGDVIYKGFED [NFU1_Y194_G189R] | 0.488 | 0.797 | 0.634 | 0.481 | 0.672 | 0.699 | 0.81 | 4.47 | 1.07 | 1.03 | 0.622 | 2.03 | 0.445 | 0.815 | 0.681 | 0.514 |
| DSKIRYLSADS [TTF1_Y476_E473K] | 0.426 | 1.11 | 0.682 | 0.435 | 0.607 | 0.546 | 0.503 | 0.389 | 0.434 | 0.663 | 0.465 | 0.527 | 0.508 | 0.611 | 0.368 | 0.457 |
